Laboratory results: publication PMC2248580

B1: Non-pancreatic secreted human group IIA phospholipase A2 (enzyme)
chain: NLVNFHRMIKLTTGKEAALSYGFYGCHCGVGGRGSPKDATDRCCVTHDCCYKRLEKRGCGTKFLSYKFSNSGSRITCAKQDSCRSQLCECDKAAATCFARNKTTYNKKYQYYSNKHCRGSTPRC
B2: isoform A of ammodytoxin from Vipera ammodytes ammodytes venom (enzyme)
chain: SLLEFGMMILGETGKNPLTSYSFYGCYCGVGGKGTPKDATDRCCFVHDCCYGNLPDCSPKTDRYKYHRENGAIVCGKGTSCENRICECDRAAAICFRKNLKTYNYIYRNYPDFLCKKESEKC

Biological target: human activated blood coagulation factor X (FXa) (human)
Sequence (P00742 whole entry): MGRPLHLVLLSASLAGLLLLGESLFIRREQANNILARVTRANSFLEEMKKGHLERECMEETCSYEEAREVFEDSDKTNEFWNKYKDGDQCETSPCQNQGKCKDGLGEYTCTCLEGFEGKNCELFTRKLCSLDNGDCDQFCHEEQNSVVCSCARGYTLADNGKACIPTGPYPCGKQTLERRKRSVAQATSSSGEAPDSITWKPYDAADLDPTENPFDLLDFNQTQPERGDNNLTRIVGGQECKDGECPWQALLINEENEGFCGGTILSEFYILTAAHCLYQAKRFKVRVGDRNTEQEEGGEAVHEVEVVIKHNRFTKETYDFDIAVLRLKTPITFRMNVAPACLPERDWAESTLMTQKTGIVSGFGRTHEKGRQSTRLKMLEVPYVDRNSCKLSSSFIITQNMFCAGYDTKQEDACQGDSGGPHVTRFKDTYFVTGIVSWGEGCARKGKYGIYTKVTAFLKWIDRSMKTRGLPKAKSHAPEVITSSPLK
Test: SPR; […]; 37°C; HBS (10 mM Hepes, 150 mM NaCl, 5 mM CaCl2, 0.005% P20, pH 7.4); Langmuir fit; […]

Binder | Kd [µM] | koff [s⁻¹] | kon [M⁻¹ s⁻¹]
B1 | 0.014 | 0.029 | 2e+06
B2 | 0.03 | 0.007 | 220000
